In article PMC4508901 (The Journal of Cell Biology, 2015):

Target: the molecule itself
Test: cross-linking

B1: purified Egd2 (expressed in E. coli) (natural protein, S. cerevisiae, UniProt P38879 1-174, looked up)
chain: MSAIPENANVTVLNKNEKKARELIGKLGLKQIPGIIRVTFRKKDNQIYAIEKPEVFRSAGGNYVVFGEAKVDNFTQKLAAAQQQAQASGIMPSNEDVATKSPEDIQADMQAAAEGSVNAAAEEDDEEGEVDAGDLNKDDIELVVQQTNVSKNQAIKALKAHNGDLVNAIMSLSK
stoichiometry N: 2
